Measured values: patent publication US20020062008A1 (ICOS, published 2002)

T1: soluble ICAM-R/IgG1 fusion protein (UniProt P32942 30-485, limits assumed)
T1 construct: not shown: IgG1 portion
T1 sequence (looked up): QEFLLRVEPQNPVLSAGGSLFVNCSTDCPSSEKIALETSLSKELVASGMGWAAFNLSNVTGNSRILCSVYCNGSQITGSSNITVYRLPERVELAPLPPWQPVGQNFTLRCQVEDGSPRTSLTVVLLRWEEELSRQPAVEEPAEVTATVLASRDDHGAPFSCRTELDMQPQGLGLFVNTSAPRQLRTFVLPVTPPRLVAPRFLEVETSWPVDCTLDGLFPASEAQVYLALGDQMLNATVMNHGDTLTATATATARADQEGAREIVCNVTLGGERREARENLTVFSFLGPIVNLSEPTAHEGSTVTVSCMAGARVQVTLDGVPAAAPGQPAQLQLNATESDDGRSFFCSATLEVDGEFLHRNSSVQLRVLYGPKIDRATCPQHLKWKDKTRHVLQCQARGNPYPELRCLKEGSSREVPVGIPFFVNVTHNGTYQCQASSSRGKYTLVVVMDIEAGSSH

B1: E-selectin, immobilized recombinant (ligand, UniProt P16581 22-556, looked up)
chain: WSYNTSTEAMTYDEASAYCQQRYTHLVAIQNKEEIEYLNSILSYSPSYYWIGIRKVNNVWVWVGTQKPLTEEAKNWAPGEPNNRQKDEDCVEIYIKREKDVGMWNDERCSKKKLALCYTAACTNTSCSGHGECVETINNYTCKCDPGFSGLKCEQIVNCTALESPEHGSLVCSHPLGNFSYNSSCSISCDRGYLPSSMETMQCMSSGEWSAPIPACNVVECDAVTNPANGFVECFQNPGSFPWNTTCTFDCEEGFELMGAQSLQCTSSGNWDNEKPTCKAVTCRAVRQPQNGSVRCSHSPAGEFTFKSSCNFTCEEGFMLQGPAQVECTTQGQWTQQIPVCEAFQCTALSNPERGYMNCLPSASGSFRYGSSCEFSCEQGFVLKGSKRLQCGPTGEWDNEKPTCEAVRCDAVHQPPKGLVRCAHSPIGEFTYKSSCAFSCEEGFELHGSTQLECTSQGQWTEEVPSCQVVKCSSLAVPGKINMSCSGEPVFGTVCKFACPEGWTLNGSAARTCGATGHWSGLLPTCEAPTESNIP
notes: also called E-selection
B2: soluble VCAM-1/IgG1 fusion protein (seven extracellular immunoglobulin-like domains) (Fc fusion, UniProt P19320 25-698, looked up)
chain: FKIETTPESRYLAQIGDSVSLTCSTTGCESPFFSWRTQIDSPLNGKVTNEGTTSTLTMNPVSFGNEHSYLCTATCESRKLEKGIQVEIYSFPKDPEIHLSGPLEAGKPITVKCSVADVYPFDRLEIDLLKGDHLMKSQEFLEDADRKSLETKSLEVTFTPVIEDIGKVLVCRAKLHIDEMDSVPTVRQAVKELQVYISPKNTVISVNPSTKLQEGGSVTMTCSSEGLPAPEIFWSKKLDNGNLQHLSGNATLTLIAMRMEDSGIYVCEGVNLIGKNRKEVELIVQEKPFTVEISPGPRIAAQIGDSVMLTCSVMGCESPSFSWRTQIDSPLSGKVRSEGTNSTLTLSPVSFENEHSYLCTVTCGHKKLEKGIQVELYSFPRDPEIEMSGGLVNGSSVTVSCKVPSVYPLDRLEIELLKGETILENIEFLEDTDMKSLENKSLEMTFIPTIEDTGKALVCQAKLHIDDMEFEPKQRQSTQTLYVNVAPRDTTVLVSPSSILEEGSSVNMTCLSQGFPAPKILWSRQLPNGELQPLSENATLTLISTKMEDSGVYLCEGINQAGRSRKEVELIIQVTPKDIKLTAFPSESVKEGDTVIISCTCGNVPETWIILKKKAETGDTVLKSIDGAYTIRKAQLKDAGVYECESKNKVGSQLRSLTLDVQGRENNKDYFSPE
notes: domain: seven extracellular immunoglobulin-like domains; not shown: IgG1 portion
B3: CD11a I domain/IgG chimeric protein (Fc fusion, UniProt P20701 153-332, looked up)
chain: GNVDLVFLFDGSMSLQPDEFQKILDFMKDVMKKLSNTSYQFAAVQFSTSYKTEFDFSDYVKRKDPDALLKHVKHMLLLTNTFGAINYVATEVFREELGARPDATKVLIIITDGEATDSGNIDAAKDIIRYIIGIGKHFQTKESQETLHKFASKPASEFVKILDTFEKLKDLFTELQKKIY
notes: domain: I domain; Negative control; also called CD11a/IgG4 protein; not shown: IgG4 portion
B4: human αd I domain/IgG4 fusion protein (Fc fusion)
chain: IVFLIDGSGSIDQNDFNQMKGFVQAVMGQFEGTDTLFALMQYSNLLKIHFTFTQFRTSPSQQSLVDPIVQLKGLTFTATGILTVVTQLFHHKNGARKSAKKILIVITDGQKYKDPLEYSDVIPQAEKAGIIRYAIGVGHAFQGPTARQELNTISSAPPQDHVFKVDNFAALGSIQKQLQEKIYAVEGTQSRASSSFQHEMSQE
notes: Residue limits approximate; also called Iαd/IgG4; I domain chimera; not shown: human IgG4 portion
B5: VCAM-1 domains 1 and 2 fused to human immunoglobulin Fc (Fc fusion, UniProt P19320 25-220, looked up, not shown: a dimerising Fc or GST)
chain: FKIETTPESRYLAQIGDSVSLTCSTTGCESPFFSWRTQIDSPLNGKVTNEGTTSTLTMNPVSFGNEHSYLCTATCESRKLEKGIQVEIYSFPKDPEIHLSGPLEAGKPITVKCSVADVYPFDRLEIDLLKGDHLMKSQEFLEDADRKSLETKSLEVTFTPVIEDIGKVLVCRAKLHIDEMDSVPTVRQAVKELQVY
notes: domain: domains 1 and 2; also called two domain form of VCAM-1
B6: soluble ICAM-1/IgG1 fusion protein (Fc fusion, UniProt P05362 28-480, looked up)
chain: QTSVSPSKVILPRGGSVLVTCSTSCDQPKLLGIETPLPKKELLLPGNNRKVYELSNVQEDSQPMCYSNCPDGQSTAKTFLTVYWTPERVELAPLPSWQPVGKNLTLRCQVEGGAPRANLTVVLLRGEKELKREPAVGEPAEVTTTVLVRRDHHGANFSCRTELDLRPQGLELFENTSAPYQLQTFVLPATPPQLVSPRVLEVDTQGTVVCSLDGLFPVSEAQVHLALGDQRLNPTVTYGNDSFSAKASVSVTAEDEGTQRLTCAVILGNQSQETLQTVTIYSFPAPNVILTKPEVSEGTEVTVKCEAHPRAKVTLNGVPAQPLGPRAQLLLKATPEDNGRSFSCSATLEVAGQLIHKNQTRELRVLYGPRLDERDCPGNWTWPENSQQTPMCQAWGNPLPELKCLKDGTFPLPIGESVTVTRDLEGTYLCRARSTQGEVTRKVTVNVLSPRYE
notes: not shown: IgG1 portion (detected with anti-human IgG1)

Tests used:
[1] = target: T2, human αd/CD18 heterodimer expressed on transfected cells (COS, CHO, JY) (human, UniProt P05107 23-769); experiment: adhesion of αdβ2-transfected CHO cells to coated wells
T2 construct: whole, on cells; also used as detergent lysate in immunoprecipitations; also called αd/CD18 CHO transfected cells; αd/CD18 co-transfectants
Protocol: For transfected and parental CHO cells, adhesion was performed using coated plates identical to those employed for eosinophil adhesion. […] A modification of a previously described gentle washing technique [Shanley, et al., J. Immunol. 160:1014 (1998)] was therefore employed. This technique allowed non-adherent cells to be dislodged from the inverted plate with centrifugation at 1×g for 30 minutes at 20° C. Remaining adherent cells were then removed using 0.1 M EDTA (Sigma) and counted by flow cytometry. In addition to VCAM-1, E-selection (100 ng/ml) was also used to coat wells in some adhesion experiments. In addition to the blocking monoclonal antibodies used in the eosinophil studies, immobilized VCAM-1 was pretreated with an appropriate dilution of F(ab′)₂ anti-VCAM-1 monoclonal antibody prior to the addition of CHO cells.
Chinese hamster ovary cells were transfected as described in Example 11. The αdβ₂-transfected CHO cells were cultured in DMEM/F12 media with 1 mM pyruvate and 2 mM L-glutamine (Biofluids) supplemented with 10% dialyzed FBS, 100 U/ml penicillin, 100 μg/ml streptomycin, and 600 μg/ml G418 (all from Life Technologies). Media for culture of the parental CHO cell line was similar except that non-dialyzed FBS (Life Technologies) was used and 0.1 mM hypoxanthine and 16 nM thymidine (Sigma) were used in place of the G418. […]

[2] = target: T3, LFA-1 leucine zipper fusion protein (soluble CD11a/CD18) (UniProt P20701 26-1090; P05107 23-700); experiment: ELISA on LFA-1LZ captured with TS2/4.1
T3 construct: also called LFA-1LZ; captured CD11a/CD18
Protocol: (§1) The same protocol was used to immobilize the anti-CD11a antibody TS2/4.1 for immobilization of a LFA-1 leucine zipper (LFA-1LZ) fusion protein; LFA-1 was used as a negative control for VCAM-1 binding and a positive control for ICAM-1 binding. The plates were blocked with 300 μl/well 3% bovine serum albumin for one hour and washed in D-PBS. Tissue culture supernatants from stable CHO transfectants expressing either αd/CD18LZ or LFA-1LZ were added at 100 μl/well and allowed to incubate for 6 to 8 hours at 4° C. The plates were washed twice with Tris-buffered saline with Tween® 20 (TBS-T), followed by one wash with TBS (no Tween®) containing 2 mM each calcium chloride, magnesium chloride, and manganese chloride. The latter served as assay and wash buffer during the remainder of the assay.
(§2) After integrin capture, the plates were washed three times with 250 μl/well TBS. Purified CAM/Ig (see Example 12) was added to each well following serial 2:3 dilutions starting at a concentration of 10 to 20 μg/ml. CAM/Igs were allowed to bind for two hours at room temperature before plates were washed as above. Bound fusion protein was detected with horseradish peroxidase-conjugated goat anti-human Ig antibody (Jackson Labs) followed by development with o-phenyldiamine (OPD).

[3] = target: T1, soluble ICAM-R/IgG1 fusion protein; experiment: ELISA, bound IgG4 detected with HP6023
[4] = target: B2; experiment: ELISA, bound IgG4 detected with HP6023
bovine serum albumin = target: T4, bovine serum albumin (bovine, UniProt P02769 25-607); experiment: ELISA, bound IgG4 detected with HP6023
T4 construct: also called BSA

[5] = target: B6; experiment: ELISA, bound IgG4 detected with HP6023
[6] = target: T2, human αd/CD18 heterodimer expressed on …; experiment: adhesion of CHO transfectants to immobilized CAM, crystal violet A570
Protocol: (§3) The ability of CHO cells expressing either α₄β₁ or αdβ₂ to bind a five domain VCAM-1/Ig fusion protein or ICAM-1/Ig fusion protein was tested as follows. CAMs were immobilized on 96 well microtiter plates at 0.5 μg/well in bicarbonate buffer (pH 9.5). Plates were blocked with 1% fish gelatin and treated with either buffer, irrelevant antibody or a blocking VCAM-1 antibody. […] Cells were washed before addition to the CAM-coated wells at a density of 100,000 cells per well. Cells were incubated in the presence of the immobilized […] for twenty minutes before addition of 5% glutaraldehyde. Following fixation, plates were washed with distilled water and cells were stained with 1% crystal violet, After destaining with 66% ethanol for several hours, absorbance at 570 nm was measured on a Dynatech plate reader.

[7] = target: T3, LFA-1 leucine zipper fusion protein …; experiment: ELISA, CAM/Ig on captured soluble CD11a/CD18
Protocol: as §1, §2

[8] = target: T2, human αd/CD18 heterodimer expressed on …; experiment: adhesion of CHO transfectants to immobilized CAM, crystal violet
Protocol: as §3

[9] = target: T5, α4β1 expressed on CHO cells (UniProt P13612 34-1032; P05556 21-798, limits assumed); experiment: as above
T5 construct: whole, on cells; also called α4 transformed CHO cells; α4 transfected line
Protocol: as §3

T4 sequence (P02769 25-607 limits assumed): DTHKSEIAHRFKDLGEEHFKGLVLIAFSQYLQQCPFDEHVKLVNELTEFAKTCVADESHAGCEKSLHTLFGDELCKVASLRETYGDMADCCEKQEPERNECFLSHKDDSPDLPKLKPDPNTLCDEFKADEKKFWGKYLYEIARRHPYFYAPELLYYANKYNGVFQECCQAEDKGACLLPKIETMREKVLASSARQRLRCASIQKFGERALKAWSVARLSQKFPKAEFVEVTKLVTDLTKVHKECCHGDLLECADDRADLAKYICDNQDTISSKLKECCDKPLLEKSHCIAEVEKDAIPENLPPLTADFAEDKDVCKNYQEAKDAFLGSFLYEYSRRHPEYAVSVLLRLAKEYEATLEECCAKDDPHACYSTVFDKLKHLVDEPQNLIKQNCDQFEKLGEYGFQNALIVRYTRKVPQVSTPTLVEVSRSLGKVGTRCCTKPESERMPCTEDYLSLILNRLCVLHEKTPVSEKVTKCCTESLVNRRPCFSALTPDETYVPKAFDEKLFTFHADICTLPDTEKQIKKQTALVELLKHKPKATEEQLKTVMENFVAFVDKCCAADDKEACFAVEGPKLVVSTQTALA

Binder: B1
binding result [1]: no binding (tested: 100 ng/ml coat)

Binder: B2
binding result [2]: no binding

Binder: B3
binding result [3]: no binding
binding result [4]: no binding

Binder: B4
binding result (bovine serum albumin): no binding
binding result [5]: no binding

Binder: B5
binding result [6]: binds

Binder: B6
fold above background [7]: ~15 fold
binding result [8]: no binding (tested: 0.5 µg/well coat)
binding result [9]: no binding (tested: 0.5 µg/well coat)
